Patent US8227408B2, “Leptin as an anti-amyloidogenic biologic and methods for delaying the onset and reducing Alzheimer's disease-like pathology” (Neurotez, Inc., priority 2005, dated 2012)

System: Tg2576 mice
Assay: Chronic s.c. leptin infusion in Tg2576 mice under high or low fat diet
Format: in vivo, mouse
Experimental: Blood was withdrawn (approximately 1 ml) from deeply anaesthetized animals by cardiocentesis and mixed with 25 μl of 164 μM EDTA anticoagulant. Plasma was prepared immediately and frozen at −70° C. Plasma leptin concentrations were determined by a radioimmunoassay (RIA) (Chung et al., Am. J Physiol. 274:R985-R990 (1998)), using a kit from LINCO Research, Inc. (Missouri).
APPswe (SEQ ID NO: 13) expressing mice (Tg2576) or wild-type littermates were maintained in pathogen-free environment at 25° C. on a 12-12 h light-dark cycle. Mice were euthanized between the ages of 31 and 40 weeks. They were provided ad libidum access for up to 9 weeks (i.e., 1 week prior to leptin treatments and 8 weeks during such treatments) to a high fat diet (D12451) containing about 45% of the total calories from fat (Research Diets, NJ) or to a low fat diet (D12450B) containing about 10% of the total calories from fat. Equal number of male and female Tg2576 mice under each diet were administered leptin or a placebo (PBS) from the age of 32 wks to up to 40 wks of age. For this, mice were anaesthetized with intraperitoneal injection of ketamine (55 mg/ml) and xylazine (7-10 mg/ml) and surgically fitted with an Alzet miniosmotic pump (model 2004, Durect Co, CA) placed subcutaneously. Local subcutaneous injection of 0.5 ml of 0.5% lidocaine insured postoperative relief. Half of the mice received daily about 20 μg leptin in PBS (0.25 μl/h of 3.33 mg/ml recombinant murine leptin) and the other half were infused with PBS. Four from each group (two males and two females) were euthanized after 4 weeks treatment. Osmotic pumps were replaced in the rest and the mice then treated for a total period of 8 weeks. Wild-type littermates were also treated with leptin under high or low diet regimens. […]
In panel (a), plasma leptin was quantified in one year old mice with the following genotypes: i) double mutant APPSwe/PS1M146V ii) single mutant PS1M146V and iii) wild-type (a cross between C57BL/6Ntac and B6SJLF2). […] Plasma Aβ was also measured in these mice prior to treatment. […] In panel (c), plasma leptin was determined by radioimmunoassay (“RIA”) (LINCO Research, Inc.) in 8 month old Tg2576 and WT littermate mice and then again following treatments as described in FIG. 4b. Leptin also was measured in WT but not Tg2576 mice prior to treatment. In panel (d), plasma insulin was determined by RIA (LINCO Research, Inc.) in 8 month old WT and Tg2576 mice and then again following a 2 month LFD or HFD with (+) or without (−) leptin infusion. In panel (e), plasma total Aβ (Aβ40 (SEQ ID NO: 4) plus Aβ42/43 (SEQ ID NO: 5/SEQ ID NO: 6) was measured in 8 month Tg2576 mice and then again following a 2 month LFD or HFD with (+) or without (−) leptin infusion. […]

B1: Leptin: peptide hormone controlling adaptive metabolic mechanisms to energy availability; leptin (Harbor-UCLA) in vitro, recombinant murine leptin in mice (protein, UniProt P41160 22-167, looked up)
Leptin: VPIQKVQDDTKTLIKTIVTRINDISHTQSVSAKQRVTGLDFIPGLHPILSLSKMDQTLAVYQQVLTSLPSQNVLQIANDLENLRDLLHLLAFSKSCSLPQTSGLQKPESLDGVLEASLYSTEVVALSRLQGSLQDILQQLDVSPEC
levels of circulating Aβ (total Aβ in the plasma) (Tg2576, both diets, 2 month leptin infusion): lower the levels of circulating Aβ under both diets
APP expression in adipocytes (adipose tissue of mice under high or low fat diets, data not shown): no apparent influence
fasting insulin levels (plasma, RIA) (all groups (WT and Tg2576, LFD and HFD), 2 month leptin infusion): decreased fasting insulin levels in all groups
brain Aβ load (chronic administration, s.c. Alzet pump about 20 μg leptin daily, up to 8 weeks): reduced the brain Aβ load
